In patent US20180155451A1 (published 2018):

B1: GpH7-B3 variant L234_09D/GpL16-k0 (antibody, human IgG1, kappa)
heavy: not shown
light: DIVMTQSPLSLPVTPGEPASISCQASESLVHSNRNTYLHWYLQKPGQSPQLLIYKVSNRFSGVPDRFSGSGSGTDFTLKISRVEAEDVGVYYCSQNTHVPPTFGQGTKVEIERTVAAPSVFIFPPSDEQLKSGTASVVCLLNNFYPREAKVQWKVDNALQSGNSQESVTEQDSKDSTYSLSSTLTLSKADYEKHKVYACEVTHQGLSSPVTKSFNRGEC
notes: also called Ho Ab L234_09D
B2: GpH7-B3 variant L234_10E/GpL16-k0 (antibody, human IgG1, kappa)
heavy: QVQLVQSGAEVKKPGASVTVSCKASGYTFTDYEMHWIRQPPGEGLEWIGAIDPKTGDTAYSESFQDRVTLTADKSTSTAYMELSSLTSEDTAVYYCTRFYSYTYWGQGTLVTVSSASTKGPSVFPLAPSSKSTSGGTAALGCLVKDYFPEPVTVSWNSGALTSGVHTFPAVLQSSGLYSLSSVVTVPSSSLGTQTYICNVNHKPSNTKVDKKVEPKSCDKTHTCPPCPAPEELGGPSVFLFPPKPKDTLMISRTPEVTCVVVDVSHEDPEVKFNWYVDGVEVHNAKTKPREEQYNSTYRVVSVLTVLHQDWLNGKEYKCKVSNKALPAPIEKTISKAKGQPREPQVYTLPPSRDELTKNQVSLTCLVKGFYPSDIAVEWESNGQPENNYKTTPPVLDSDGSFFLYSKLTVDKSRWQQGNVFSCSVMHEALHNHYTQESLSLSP
light: DIVMTQSPLSLPVTPGEPASISCQASESLVHSNRNTYLHWYLQKPGQSPQLLIYKVSNRFSGVPDRFSGSGSGTDFTLKISRVEAEDVGVYYCSQNTHVPPTFGQGTKVEIERTVAAPSVFIFPPSDEQLKSGTASVVCLLNNFYPREAKVQWKVDNALQSGNSQESVTEQDSKDSTYSLSSTLTLSKADYEKHKVYACEVTHQGLSSPVTKSFNRGEC
notes: also called Ho Ab L234_10E
B3: GpH7-B3 variant L234_20W/GpL16-k0 (antibody, human IgG1, kappa)
heavy: not shown
light: DIVMTQSPLSLPVTPGEPASISCQASESLVHSNRNTYLHWYLQKPGQSPQLLIYKVSNRFSGVPDRFSGSGSGTDFTLKISRVEAEDVGVYYCSQNTHVPPTFGQGTKVEIERTVAAPSVFIFPPSDEQLKSGTASVVCLLNNFYPREAKVQWKVDNALQSGNSQESVTEQDSKDSTYSLSSTLTLSKADYEKHKVYACEVTHQGLSSPVTKSFNRGEC
notes: also called Ho Ab L234_20W
B4: GpH7-B3 variant L235_04F/GpL16-k0 (antibody, human IgG1, kappa)
heavy: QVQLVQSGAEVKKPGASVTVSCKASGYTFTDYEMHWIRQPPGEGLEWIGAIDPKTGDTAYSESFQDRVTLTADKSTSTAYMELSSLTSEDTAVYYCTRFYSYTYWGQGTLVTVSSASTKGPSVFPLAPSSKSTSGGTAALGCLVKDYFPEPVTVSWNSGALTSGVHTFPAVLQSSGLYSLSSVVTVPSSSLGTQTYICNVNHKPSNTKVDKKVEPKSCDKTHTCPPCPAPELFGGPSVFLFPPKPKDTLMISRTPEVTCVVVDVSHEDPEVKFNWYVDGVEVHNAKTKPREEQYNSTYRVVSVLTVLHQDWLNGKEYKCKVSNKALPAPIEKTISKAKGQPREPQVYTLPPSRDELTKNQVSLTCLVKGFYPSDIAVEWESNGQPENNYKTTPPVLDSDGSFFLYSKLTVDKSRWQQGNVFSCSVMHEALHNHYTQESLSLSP
light: DIVMTQSPLSLPVTPGEPASISCQASESLVHSNRNTYLHWYLQKPGQSPQLLIYKVSNRFSGVPDRFSGSGSGTDFTLKISRVEAEDVGVYYCSQNTHVPPTFGQGTKVEIERTVAAPSVFIFPPSDEQLKSGTASVVCLLNNFYPREAKVQWKVDNALQSGNSQESVTEQDSKDSTYSLSSTLTLSKADYEKHKVYACEVTHQGLSSPVTKSFNRGEC
notes: also called Ho Ab L235_04F
B5: GpH7-B3 variant L235_09D/GpL16-k0 (antibody, human IgG1, kappa)
heavy: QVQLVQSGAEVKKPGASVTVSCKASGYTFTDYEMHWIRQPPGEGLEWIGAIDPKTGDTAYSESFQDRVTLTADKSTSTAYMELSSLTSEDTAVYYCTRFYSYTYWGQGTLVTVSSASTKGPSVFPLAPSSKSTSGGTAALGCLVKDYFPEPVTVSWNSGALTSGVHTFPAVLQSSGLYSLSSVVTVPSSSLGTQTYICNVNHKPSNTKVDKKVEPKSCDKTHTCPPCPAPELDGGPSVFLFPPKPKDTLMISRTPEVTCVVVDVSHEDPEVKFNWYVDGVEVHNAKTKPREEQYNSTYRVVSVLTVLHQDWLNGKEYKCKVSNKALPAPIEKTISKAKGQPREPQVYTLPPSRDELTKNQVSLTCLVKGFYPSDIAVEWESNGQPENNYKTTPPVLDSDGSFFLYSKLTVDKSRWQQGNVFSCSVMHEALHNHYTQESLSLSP
light: DIVMTQSPLSLPVTPGEPASISCQASESLVHSNRNTYLHWYLQKPGQSPQLLIYKVSNRFSGVPDRFSGSGSGTDFTLKISRVEAEDVGVYYCSQNTHVPPTFGQGTKVEIERTVAAPSVFIFPPSDEQLKSGTASVVCLLNNFYPREAKVQWKVDNALQSGNSQESVTEQDSKDSTYSLSSTLTLSKADYEKHKVYACEVTHQGLSSPVTKSFNRGEC
notes: also called Ho Ab L235_09D
B6: GpH7-B3 variant L235_15Y/GpL16-k0 (antibody, human IgG1, kappa)
heavy: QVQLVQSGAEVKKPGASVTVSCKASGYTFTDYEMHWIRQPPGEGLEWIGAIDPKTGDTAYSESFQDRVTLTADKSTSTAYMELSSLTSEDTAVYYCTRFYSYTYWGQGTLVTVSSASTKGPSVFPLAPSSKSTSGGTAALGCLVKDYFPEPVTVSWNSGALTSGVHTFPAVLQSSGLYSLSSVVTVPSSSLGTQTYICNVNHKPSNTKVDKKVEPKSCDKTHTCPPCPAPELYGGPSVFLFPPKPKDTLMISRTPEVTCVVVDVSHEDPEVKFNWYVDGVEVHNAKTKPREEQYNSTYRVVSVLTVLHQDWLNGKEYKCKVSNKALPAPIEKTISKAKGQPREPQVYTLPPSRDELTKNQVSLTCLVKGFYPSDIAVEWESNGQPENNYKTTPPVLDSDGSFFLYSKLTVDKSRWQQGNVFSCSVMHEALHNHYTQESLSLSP
light: DIVMTQSPLSLPVTPGEPASISCQASESLVHSNRNTYLHWYLQKPGQSPQLLIYKVSNRFSGVPDRFSGSGSGTDFTLKISRVEAEDVGVYYCSQNTHVPPTFGQGTKVEIERTVAAPSVFIFPPSDEQLKSGTASVVCLLNNFYPREAKVQWKVDNALQSGNSQESVTEQDSKDSTYSLSSTLTLSKADYEKHKVYACEVTHQGLSSPVTKSFNRGEC
notes: also called Ho Ab L235_15Y
B7: GpH7-B3 variant L235_20W/GpL16-k0 (antibody, human IgG1, kappa)
heavy: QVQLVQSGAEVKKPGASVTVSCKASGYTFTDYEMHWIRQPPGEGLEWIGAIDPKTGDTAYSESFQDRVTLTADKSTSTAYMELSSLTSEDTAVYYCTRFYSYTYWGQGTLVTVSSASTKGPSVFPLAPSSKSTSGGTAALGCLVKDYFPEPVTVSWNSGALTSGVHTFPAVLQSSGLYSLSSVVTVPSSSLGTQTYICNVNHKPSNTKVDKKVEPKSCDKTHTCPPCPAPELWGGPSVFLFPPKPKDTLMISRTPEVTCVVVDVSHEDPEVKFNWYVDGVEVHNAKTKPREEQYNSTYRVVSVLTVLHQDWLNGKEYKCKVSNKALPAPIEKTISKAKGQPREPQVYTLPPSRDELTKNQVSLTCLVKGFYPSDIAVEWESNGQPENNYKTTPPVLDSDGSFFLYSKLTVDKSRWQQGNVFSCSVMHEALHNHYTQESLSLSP
light: DIVMTQSPLSLPVTPGEPASISCQASESLVHSNRNTYLHWYLQKPGQSPQLLIYKVSNRFSGVPDRFSGSGSGTDFTLKISRVEAEDVGVYYCSQNTHVPPTFGQGTKVEIERTVAAPSVFIFPPSDEQLKSGTASVVCLLNNFYPREAKVQWKVDNALQSGNSQESVTEQDSKDSTYSLSSTLTLSKADYEKHKVYACEVTHQGLSSPVTKSFNRGEC
notes: also called Ho Ab L235_20W
B8: GpH7-B3 variant L328_02A/GpL16-k0 (antibody, human IgG1, kappa)
heavy: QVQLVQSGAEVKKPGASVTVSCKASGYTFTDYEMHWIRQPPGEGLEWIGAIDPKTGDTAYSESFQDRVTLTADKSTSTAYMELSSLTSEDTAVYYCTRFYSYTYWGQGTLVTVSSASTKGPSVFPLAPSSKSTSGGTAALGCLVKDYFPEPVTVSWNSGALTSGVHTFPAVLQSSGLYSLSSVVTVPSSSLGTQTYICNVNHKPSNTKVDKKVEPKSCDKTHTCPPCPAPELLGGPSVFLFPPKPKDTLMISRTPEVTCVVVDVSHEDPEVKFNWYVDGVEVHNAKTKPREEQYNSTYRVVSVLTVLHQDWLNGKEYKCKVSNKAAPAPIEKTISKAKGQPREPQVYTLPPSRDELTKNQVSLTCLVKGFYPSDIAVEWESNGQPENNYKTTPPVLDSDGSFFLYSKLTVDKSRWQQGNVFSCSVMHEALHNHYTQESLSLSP
light: DIVMTQSPLSLPVTPGEPASISCQASESLVHSNRNTYLHWYLQKPGQSPQLLIYKVSNRFSGVPDRFSGSGSGTDFTLKISRVEAEDVGVYYCSQNTHVPPTFGQGTKVEIERTVAAPSVFIFPPSDEQLKSGTASVVCLLNNFYPREAKVQWKVDNALQSGNSQESVTEQDSKDSTYSLSSTLTLSKADYEKHKVYACEVTHQGLSSPVTKSFNRGEC
notes: also called Ho Ab L328_02A
B9: GpH7-B3 variant L328_09D/GpL16-k0 (antibody, human IgG1, kappa)
heavy: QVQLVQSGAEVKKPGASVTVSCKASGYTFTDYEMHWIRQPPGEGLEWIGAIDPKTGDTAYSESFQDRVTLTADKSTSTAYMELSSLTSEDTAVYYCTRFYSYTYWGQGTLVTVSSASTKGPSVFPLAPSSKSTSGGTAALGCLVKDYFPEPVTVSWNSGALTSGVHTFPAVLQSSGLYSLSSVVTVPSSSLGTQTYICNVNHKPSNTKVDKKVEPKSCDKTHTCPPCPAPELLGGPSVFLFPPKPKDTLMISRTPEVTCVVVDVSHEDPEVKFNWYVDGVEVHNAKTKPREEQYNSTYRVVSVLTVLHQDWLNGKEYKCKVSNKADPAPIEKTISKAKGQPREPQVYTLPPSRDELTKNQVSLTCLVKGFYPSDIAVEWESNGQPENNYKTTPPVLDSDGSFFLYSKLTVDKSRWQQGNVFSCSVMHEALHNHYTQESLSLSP
light: DIVMTQSPLSLPVTPGEPASISCQASESLVHSNRNTYLHWYLQKPGQSPQLLIYKVSNRFSGVPDRFSGSGSGTDFTLKISRVEAEDVGVYYCSQNTHVPPTFGQGTKVEIERTVAAPSVFIFPPSDEQLKSGTASVVCLLNNFYPREAKVQWKVDNALQSGNSQESVTEQDSKDSTYSLSSTLTLSKADYEKHKVYACEVTHQGLSSPVTKSFNRGEC
notes: also called Ho Ab L328_09D
B10: GpH7-B3 variant L328_10E/GpL16-k0 (antibody, human IgG1, kappa)
heavy: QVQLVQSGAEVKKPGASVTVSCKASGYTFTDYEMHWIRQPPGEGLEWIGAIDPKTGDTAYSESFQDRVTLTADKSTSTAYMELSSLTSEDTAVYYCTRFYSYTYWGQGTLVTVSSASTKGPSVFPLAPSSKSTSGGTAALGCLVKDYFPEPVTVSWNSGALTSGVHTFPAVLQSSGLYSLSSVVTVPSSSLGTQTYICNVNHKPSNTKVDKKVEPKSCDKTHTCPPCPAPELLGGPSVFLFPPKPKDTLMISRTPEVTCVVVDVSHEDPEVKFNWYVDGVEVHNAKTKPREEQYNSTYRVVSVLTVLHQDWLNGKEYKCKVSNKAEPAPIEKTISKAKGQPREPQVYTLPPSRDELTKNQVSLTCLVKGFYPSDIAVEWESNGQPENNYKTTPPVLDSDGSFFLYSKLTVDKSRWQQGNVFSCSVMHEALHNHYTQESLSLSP
light: DIVMTQSPLSLPVTPGEPASISCQASESLVHSNRNTYLHWYLQKPGQSPQLLIYKVSNRFSGVPDRFSGSGSGTDFTLKISRVEAEDVGVYYCSQNTHVPPTFGQGTKVEIERTVAAPSVFIFPPSDEQLKSGTASVVCLLNNFYPREAKVQWKVDNALQSGNSQESVTEQDSKDSTYSLSSTLTLSKADYEKHKVYACEVTHQGLSSPVTKSFNRGEC
notes: also called Ho Ab L328_10E
B11: GpH7-B3 variant L328_13S/GpL16-k0 (antibody, human IgG1, kappa)
heavy: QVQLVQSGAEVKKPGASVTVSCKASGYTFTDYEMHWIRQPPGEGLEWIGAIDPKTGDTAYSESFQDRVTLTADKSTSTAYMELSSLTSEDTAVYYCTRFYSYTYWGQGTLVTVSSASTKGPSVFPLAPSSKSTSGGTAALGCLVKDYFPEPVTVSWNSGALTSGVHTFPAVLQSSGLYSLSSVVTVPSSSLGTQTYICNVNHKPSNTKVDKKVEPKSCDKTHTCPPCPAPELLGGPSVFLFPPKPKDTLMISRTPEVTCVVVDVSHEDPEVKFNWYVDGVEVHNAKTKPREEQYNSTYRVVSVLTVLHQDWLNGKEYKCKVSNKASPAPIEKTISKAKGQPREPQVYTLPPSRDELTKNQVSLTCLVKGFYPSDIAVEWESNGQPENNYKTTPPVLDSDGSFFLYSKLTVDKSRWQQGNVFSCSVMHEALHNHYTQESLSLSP
light: DIVMTQSPLSLPVTPGEPASISCQASESLVHSNRNTYLHWYLQKPGQSPQLLIYKVSNRFSGVPDRFSGSGSGTDFTLKISRVEAEDVGVYYCSQNTHVPPTFGQGTKVEIERTVAAPSVFIFPPSDEQLKSGTASVVCLLNNFYPREAKVQWKVDNALQSGNSQESVTEQDSKDSTYSLSSTLTLSKADYEKHKVYACEVTHQGLSSPVTKSFNRGEC
notes: also called Ho Ab L328_13S
B12: GpH7-B3 variant L328_14T/GpL16-k0 (antibody, human IgG1, kappa)
heavy: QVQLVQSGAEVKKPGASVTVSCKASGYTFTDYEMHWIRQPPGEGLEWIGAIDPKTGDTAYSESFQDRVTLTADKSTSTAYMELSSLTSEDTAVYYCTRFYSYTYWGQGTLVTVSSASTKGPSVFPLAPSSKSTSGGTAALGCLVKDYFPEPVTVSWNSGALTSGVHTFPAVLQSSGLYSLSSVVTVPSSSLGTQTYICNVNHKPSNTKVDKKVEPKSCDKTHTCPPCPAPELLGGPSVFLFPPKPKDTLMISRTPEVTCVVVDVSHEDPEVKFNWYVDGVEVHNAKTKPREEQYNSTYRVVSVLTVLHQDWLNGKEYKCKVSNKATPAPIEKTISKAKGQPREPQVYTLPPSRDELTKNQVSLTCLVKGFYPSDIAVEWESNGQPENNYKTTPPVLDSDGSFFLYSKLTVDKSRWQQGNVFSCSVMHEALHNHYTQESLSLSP
light: DIVMTQSPLSLPVTPGEPASISCQASESLVHSNRNTYLHWYLQKPGQSPQLLIYKVSNRFSGVPDRFSGSGSGTDFTLKISRVEAEDVGVYYCSQNTHVPPTFGQGTKVEIERTVAAPSVFIFPPSDEQLKSGTASVVCLLNNFYPREAKVQWKVDNALQSGNSQESVTEQDSKDSTYSLSSTLTLSKADYEKHKVYACEVTHQGLSSPVTKSFNRGEC
notes: also called Ho Ab L328_14T
B13: GpH7-B3 variant N325_01G/GpL16-k0 (antibody, human IgG1, kappa)
heavy: not shown
light: DIVMTQSPLSLPVTPGEPASISCQASESLVHSNRNTYLHWYLQKPGQSPQLLIYKVSNRFSGVPDRFSGSGSGTDFTLKISRVEAEDVGVYYCSQNTHVPPTFGQGTKVEIERTVAAPSVFIFPPSDEQLKSGTASVVCLLNNFYPREAKVQWKVDNALQSGNSQESVTEQDSKDSTYSLSSTLTLSKADYEKHKVYACEVTHQGLSSPVTKSFNRGEC
notes: also called Ho Ab N325_01G
B14: GpH7-B3 variant N325_03V/GpL16-k0 (antibody, human IgG1, kappa)
heavy: not shown
light: DIVMTQSPLSLPVTPGEPASISCQASESLVHSNRNTYLHWYLQKPGQSPQLLIYKVSNRFSGVPDRFSGSGSGTDFTLKISRVEAEDVGVYYCSQNTHVPPTFGQGTKVEIERTVAAPSVFIFPPSDEQLKSGTASVVCLLNNFYPREAKVQWKVDNALQSGNSQESVTEQDSKDSTYSLSSTLTLSKADYEKHKVYACEVTHQGLSSPVTKSFNRGEC
notes: also called Ho Ab N325_03V
B15: GpH7-B3 variant N325_07I/GpL16-k0 (antibody, human IgG1, kappa)
heavy: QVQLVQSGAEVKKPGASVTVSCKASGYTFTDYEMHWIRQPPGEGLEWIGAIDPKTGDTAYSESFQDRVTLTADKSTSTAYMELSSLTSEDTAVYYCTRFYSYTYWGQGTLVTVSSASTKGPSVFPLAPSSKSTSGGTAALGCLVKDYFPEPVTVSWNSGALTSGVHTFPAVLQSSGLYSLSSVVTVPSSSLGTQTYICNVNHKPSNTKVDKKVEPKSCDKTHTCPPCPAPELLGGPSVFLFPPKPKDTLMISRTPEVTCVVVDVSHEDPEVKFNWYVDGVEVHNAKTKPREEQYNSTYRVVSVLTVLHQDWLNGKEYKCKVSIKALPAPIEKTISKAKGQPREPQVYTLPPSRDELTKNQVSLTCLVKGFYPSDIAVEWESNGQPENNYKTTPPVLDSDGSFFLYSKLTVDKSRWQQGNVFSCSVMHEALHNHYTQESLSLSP
light: DIVMTQSPLSLPVTPGEPASISCQASESLVHSNRNTYLHWYLQKPGQSPQLLIYKVSNRFSGVPDRFSGSGSGTDFTLKISRVEAEDVGVYYCSQNTHVPPTFGQGTKVEIERTVAAPSVFIFPPSDEQLKSGTASVVCLLNNFYPREAKVQWKVDNALQSGNSQESVTEQDSKDSTYSLSSTLTLSKADYEKHKVYACEVTHQGLSSPVTKSFNRGEC
notes: also called Ho Ab N325_07I
B16: GpH7-B3 variant N325_08L/GpL16-k0 (antibody, human IgG1, kappa)
heavy: not shown
light: DIVMTQSPLSLPVTPGEPASISCQASESLVHSNRNTYLHWYLQKPGQSPQLLIYKVSNRFSGVPDRFSGSGSGTDFTLKISRVEAEDVGVYYCSQNTHVPPTFGQGTKVEIERTVAAPSVFIFPPSDEQLKSGTASVVCLLNNFYPREAKVQWKVDNALQSGNSQESVTEQDSKDSTYSLSSTLTLSKADYEKHKVYACEVTHQGLSSPVTKSFNRGEC
notes: also called Ho Ab N325_08L

Biological target: T1, FcγRIIa R (human, UniProt P12318 34-217)
T1 construct: extracellular domain; also called FcgRIIa R type; 2aR
T1 sequence (looked up): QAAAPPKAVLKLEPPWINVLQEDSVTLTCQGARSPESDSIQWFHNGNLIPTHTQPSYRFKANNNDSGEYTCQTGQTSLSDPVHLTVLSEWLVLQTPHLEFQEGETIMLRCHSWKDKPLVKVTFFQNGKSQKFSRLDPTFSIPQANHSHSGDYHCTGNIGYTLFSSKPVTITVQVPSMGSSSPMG
Assay: SPR Biacore; vs GpH7-B3/GpL16-k0 =100

In order of falling Ho/Con_2aR:
1. B12  118 % of control
2. B7  114 % of control
3. B6  111 % of control
4. B11  108 % of control
5. B4  98.9 % of control
6. B8  97 % of control
7. B16  95 % of control
8. B15  77 % of control
9. B5  73 % of control
10. B9  68.8 % of control
11. B3  53.8 % of control
12. B10  48.1 % of control
13. B1  42.8 % of control
14. B2  39.9 % of control
15. B14  37.8 % of control
16. B13  26.7 % of control
